Each sequence was assayed against Hck (UniProt P08631) (assay: phosphorylation enrichment, bacterial display (enrichment ratio); higher = better substrate or ligand; peptides without Tyr show the background).
Hck, sequence (P08631 whole entry, looked up): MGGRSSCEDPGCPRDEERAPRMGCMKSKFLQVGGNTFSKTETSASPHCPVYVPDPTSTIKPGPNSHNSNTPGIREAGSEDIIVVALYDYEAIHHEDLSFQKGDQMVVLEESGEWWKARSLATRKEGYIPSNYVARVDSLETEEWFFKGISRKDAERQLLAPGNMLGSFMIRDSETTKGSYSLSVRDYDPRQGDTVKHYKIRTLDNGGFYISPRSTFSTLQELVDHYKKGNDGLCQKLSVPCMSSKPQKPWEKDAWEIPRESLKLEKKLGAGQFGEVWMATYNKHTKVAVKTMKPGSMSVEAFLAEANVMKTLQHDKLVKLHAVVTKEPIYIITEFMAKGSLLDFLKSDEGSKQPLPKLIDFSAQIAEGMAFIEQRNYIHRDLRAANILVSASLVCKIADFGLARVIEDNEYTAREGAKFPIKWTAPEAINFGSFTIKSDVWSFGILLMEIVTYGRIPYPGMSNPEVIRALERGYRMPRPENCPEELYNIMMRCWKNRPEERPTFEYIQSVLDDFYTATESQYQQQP
KVNKIYFPDFI [LIG3_Y767_YF] was tested, and the phosphorylation enrichment was 0.543. In the case of LLILEYAKYGS [RET_Y806_V804L], the phosphorylation enrichment was 0.486. In the case of AAVDTVCRHNY [HLA-DRB1_Y107_Y107V], the phosphorylation enrichment was 0.64. Sequence SSYSGYIMMPN [LEF1_Y114] has a phosphorylation enrichment of 0.51. With LYNQDYPIHCV [GATM_Y227_S231C] the phosphorylation enrichment was 0.767. SYCYRYRCAAW [SUMF1_Y344_R349W] gave a phosphorylation enrichment of 0.386. Sequence LRRREYQRQDF [PRKRIP1_Y90_YF] has a phosphorylation enrichment of 0.572. Sequence PSQRHYVYYYS [PTEN_Y174_R173H] has a phosphorylation enrichment of 2.13. IETGKYEILTE gave a phosphorylation enrichment of 0.478. RFLRGYRQDAY [HLA-A_Y137] gave a phosphorylation enrichment of 0.764. In the case of VNFDYYTVNLG [GFPT1_Y367_D366Y], the phosphorylation enrichment was 4.22. LTMAPYSSVSV [FAM81A_Y24_L29V] gave a phosphorylation enrichment of 0.724. With LTYHMYADPNF [SOS1_Y618] the phosphorylation enrichment was 4.13. Work on SFSGEYGGGGG [ZG16_Y30_YF] yielded a phosphorylation enrichment of 0.397. SDVCMYRKNTY [SYNE2_Y570_I574T] gave a phosphorylation enrichment of 0.487. With VIKDKYPKARY [APTX_Y209] the phosphorylation enrichment was 0.373. With FKGKKYKPLDL [RPL35_Y78_YF] the phosphorylation enrichment was 0.48. CTTIHYNYMWN [TP53_Y234_C238W] gave a phosphorylation enrichment of 0.544. VTAALYGCLFE [BTD_Y536_R538C_YF] showed a phosphorylation enrichment of 3.97. KLIMECLPFGS [JAK2_Y931_Y931C_YF] showed a phosphorylation enrichment of 0.652. IMNLLYHVVGW [GBA_Y412_T408M] was tested, and the phosphorylation enrichment was 6.31. With GRIHSYRGHLW [VHL_Y112_R107G] the phosphorylation enrichment was 0.359. With PLFRKYWPNHI [GREB1L_Y1560_YF] the phosphorylation enrichment was 0.727. With QMVGMYASFFM [AVPR2_Y124_S127F_YF] the phosphorylation enrichment was 5.82. ANAFIYVVQLP [L1CAM_Y420_YF] was tested, and the phosphorylation enrichment was 0.693. For YGSGNYNVFGN [HNRNPA2B1_Y300_D302V], the phosphorylation enrichment was 0.882. For FGPPQYNIQFS [ERBB2IP_Y977_YF], the phosphorylation enrichment was 0.405. Work on SPPPAYTPMSG [ERBB4_Y1056] yielded a phosphorylation enrichment of 0.45. In the case of FDAHIYEGCVI [PRKCD_Y64_R67C], the phosphorylation enrichment was 2.53. With SGIYQYNIAKF [FOXL2_Y83_I84N] the phosphorylation enrichment was 4.76. TGQERYRAITS [RAB11B_Y73_A68T] was tested, and the phosphorylation enrichment was 0.519. TRSYDYTEGGD [FGF7_Y58_M59T] was tested, and the phosphorylation enrichment was 0.446. In the case of LVMFIYVIFGM [SCN1A_Y1684_A1685V], the phosphorylation enrichment was 0.571.

The sequences below were run against Jak2 (UniProt O60674) in the same assay as above.
Jak2, sequence (O60674 whole entry, looked up): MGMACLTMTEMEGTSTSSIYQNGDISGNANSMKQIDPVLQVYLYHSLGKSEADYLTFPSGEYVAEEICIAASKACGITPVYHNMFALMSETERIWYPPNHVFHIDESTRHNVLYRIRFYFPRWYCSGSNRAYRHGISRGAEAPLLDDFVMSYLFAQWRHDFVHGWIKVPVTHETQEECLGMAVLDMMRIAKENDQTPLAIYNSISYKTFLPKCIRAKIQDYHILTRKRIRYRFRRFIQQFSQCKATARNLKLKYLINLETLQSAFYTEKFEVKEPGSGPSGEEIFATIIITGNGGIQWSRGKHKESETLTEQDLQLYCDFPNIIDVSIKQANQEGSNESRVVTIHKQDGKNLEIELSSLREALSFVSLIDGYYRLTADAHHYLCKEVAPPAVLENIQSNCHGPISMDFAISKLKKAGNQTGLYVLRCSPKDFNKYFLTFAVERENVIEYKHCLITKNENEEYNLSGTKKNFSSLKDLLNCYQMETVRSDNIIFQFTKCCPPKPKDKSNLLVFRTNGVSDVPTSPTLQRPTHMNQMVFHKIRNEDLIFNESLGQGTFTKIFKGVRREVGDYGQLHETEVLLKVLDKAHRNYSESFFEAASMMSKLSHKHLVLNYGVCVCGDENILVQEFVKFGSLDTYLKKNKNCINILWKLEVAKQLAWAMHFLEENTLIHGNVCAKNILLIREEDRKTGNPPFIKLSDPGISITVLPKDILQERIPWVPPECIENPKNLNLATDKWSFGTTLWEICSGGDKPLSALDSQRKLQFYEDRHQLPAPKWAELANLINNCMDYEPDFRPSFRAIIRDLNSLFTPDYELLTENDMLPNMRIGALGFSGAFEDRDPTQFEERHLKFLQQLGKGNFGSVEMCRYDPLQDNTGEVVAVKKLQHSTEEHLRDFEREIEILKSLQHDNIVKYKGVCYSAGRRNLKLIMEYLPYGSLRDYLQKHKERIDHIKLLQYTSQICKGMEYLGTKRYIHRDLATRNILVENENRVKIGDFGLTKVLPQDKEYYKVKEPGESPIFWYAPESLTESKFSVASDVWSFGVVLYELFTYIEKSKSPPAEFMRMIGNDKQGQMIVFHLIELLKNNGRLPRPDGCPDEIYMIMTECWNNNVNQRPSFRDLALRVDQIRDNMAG
With KVNKIYFPDFI [LIG3_Y767_YF] the phosphorylation enrichment was 0.712. Sequence LLILEYAKYGS [RET_Y806_V804L] has a phosphorylation enrichment of 1.5. With AAVDTVCRHNY [HLA-DRB1_Y107_Y107V] the phosphorylation enrichment was 0.739. In the case of SSYSGYIMMPN [LEF1_Y114], the phosphorylation enrichment was 5.39. For LYNQDYPIHCV [GATM_Y227_S231C], the phosphorylation enrichment was 0.754. SYCYRYRCAAW [SUMF1_Y344_R349W] showed a phosphorylation enrichment of 0.508. LRRREYQRQDF [PRKRIP1_Y90_YF] gave a phosphorylation enrichment of 0.836. PSQRHYVYYYS [PTEN_Y174_R173H] gave a phosphorylation enrichment of 4.48. IETGKYEILTE showed a phosphorylation enrichment of 1.14. For RFLRGYRQDAY [HLA-A_Y137], the phosphorylation enrichment was 0.927. VNFDYYTVNLG [GFPT1_Y367_D366Y] showed a phosphorylation enrichment of 9.69. LTMAPYSSVSV [FAM81A_Y24_L29V] showed a phosphorylation enrichment of 0.933. LTYHMYADPNF [SOS1_Y618] was tested, and the phosphorylation enrichment was 2.66. SFSGEYGGGGG [ZG16_Y30_YF] gave a phosphorylation enrichment of 0.47. In the case of SDVCMYRKNTY [SYNE2_Y570_I574T], the phosphorylation enrichment was 0.67. Work on VIKDKYPKARY [APTX_Y209] yielded a phosphorylation enrichment of 0.83. With FKGKKYKPLDL [RPL35_Y78_YF] the phosphorylation enrichment was 0.486. For CTTIHYNYMWN [TP53_Y234_C238W], the phosphorylation enrichment was 0.966. For VTAALYGCLFE [BTD_Y536_R538C_YF], the phosphorylation enrichment was 1.13. With KLIMECLPFGS [JAK2_Y931_Y931C_YF] the phosphorylation enrichment was 1.57. Work on IMNLLYHVVGW [GBA_Y412_T408M] yielded a phosphorylation enrichment of 2.43. Work on GRIHSYRGHLW [VHL_Y112_R107G] yielded a phosphorylation enrichment of 0.535. For PLFRKYWPNHI [GREB1L_Y1560_YF], the phosphorylation enrichment was 0.695. QMVGMYASFFM [AVPR2_Y124_S127F_YF] was tested, and the phosphorylation enrichment was 2.03. ANAFIYVVQLP [L1CAM_Y420_YF] gave a phosphorylation enrichment of 1.02. Sequence YGSGNYNVFGN [HNRNPA2B1_Y300_D302V] has a phosphorylation enrichment of 0.683. FGPPQYNIQFS [ERBB2IP_Y977_YF] was tested, and the phosphorylation enrichment was 0.741. Sequence SPPPAYTPMSG [ERBB4_Y1056] has a phosphorylation enrichment of 0.503. Work on FDAHIYEGCVI [PRKCD_Y64_R67C] yielded a phosphorylation enrichment of 1.05. Work on SGIYQYNIAKF [FOXL2_Y83_I84N] yielded a phosphorylation enrichment of 0.593. With TGQERYRAITS [RAB11B_Y73_A68T] the phosphorylation enrichment was 0.369. TRSYDYTEGGD [FGF7_Y58_M59T] was tested, and the phosphorylation enrichment was 0.876. With LVMFIYVIFGM [SCN1A_Y1684_A1685V] the phosphorylation enrichment was 0.477.

What follows are sequences tested against MERTK (UniProt Q12866) in the same assay as above.
MERTK, sequence (Q12866 whole entry, looked up): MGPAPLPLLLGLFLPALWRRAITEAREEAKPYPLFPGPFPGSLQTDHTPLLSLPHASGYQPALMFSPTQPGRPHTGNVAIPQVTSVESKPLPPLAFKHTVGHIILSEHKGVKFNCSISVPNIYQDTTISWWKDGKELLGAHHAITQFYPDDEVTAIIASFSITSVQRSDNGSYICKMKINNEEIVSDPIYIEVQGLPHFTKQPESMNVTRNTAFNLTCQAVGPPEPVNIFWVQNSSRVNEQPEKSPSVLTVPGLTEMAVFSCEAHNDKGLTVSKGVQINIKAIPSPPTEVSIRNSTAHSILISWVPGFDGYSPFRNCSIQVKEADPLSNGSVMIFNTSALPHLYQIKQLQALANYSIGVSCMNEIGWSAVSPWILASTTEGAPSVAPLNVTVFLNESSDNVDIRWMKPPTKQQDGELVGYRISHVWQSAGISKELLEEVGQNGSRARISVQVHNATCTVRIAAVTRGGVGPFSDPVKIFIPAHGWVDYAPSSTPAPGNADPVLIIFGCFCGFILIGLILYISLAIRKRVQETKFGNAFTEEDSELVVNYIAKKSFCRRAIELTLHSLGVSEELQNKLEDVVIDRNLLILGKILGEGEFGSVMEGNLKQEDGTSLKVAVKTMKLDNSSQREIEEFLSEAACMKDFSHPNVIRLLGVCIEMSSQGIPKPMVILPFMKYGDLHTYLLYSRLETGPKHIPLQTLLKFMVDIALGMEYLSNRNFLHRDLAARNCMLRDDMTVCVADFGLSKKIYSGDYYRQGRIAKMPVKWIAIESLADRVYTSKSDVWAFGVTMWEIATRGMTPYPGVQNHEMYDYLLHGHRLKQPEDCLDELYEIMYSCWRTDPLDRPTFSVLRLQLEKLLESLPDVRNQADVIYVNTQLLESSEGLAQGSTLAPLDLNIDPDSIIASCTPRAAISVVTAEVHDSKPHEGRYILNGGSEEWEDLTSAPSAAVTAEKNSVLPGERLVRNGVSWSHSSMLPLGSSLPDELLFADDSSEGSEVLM
In the case of KVNKIYFPDFI [LIG3_Y767_YF], the phosphorylation enrichment was 0.473. Work on LLILEYAKYGS [RET_Y806_V804L] yielded a phosphorylation enrichment of 0.392. AAVDTVCRHNY [HLA-DRB1_Y107_Y107V] was tested, and the phosphorylation enrichment was 0.511. Sequence SSYSGYIMMPN [LEF1_Y114] has a phosphorylation enrichment of 2.47. Sequence LYNQDYPIHCV [GATM_Y227_S231C] has a phosphorylation enrichment of 0.463. SYCYRYRCAAW [SUMF1_Y344_R349W] gave a phosphorylation enrichment of 0.497. For LRRREYQRQDF [PRKRIP1_Y90_YF], the phosphorylation enrichment was 0.7. Sequence PSQRHYVYYYS [PTEN_Y174_R173H] has a phosphorylation enrichment of 12.6. In the case of IETGKYEILTE, the phosphorylation enrichment was 0.585. Work on RFLRGYRQDAY [HLA-A_Y137] yielded a phosphorylation enrichment of 1.2. For VNFDYYTVNLG [GFPT1_Y367_D366Y], the phosphorylation enrichment was 4.02. With LTMAPYSSVSV [FAM81A_Y24_L29V] the phosphorylation enrichment was 0.527. LTYHMYADPNF [SOS1_Y618] gave a phosphorylation enrichment of 5.2. SFSGEYGGGGG [ZG16_Y30_YF] showed a phosphorylation enrichment of 0.306. SDVCMYRKNTY [SYNE2_Y570_I574T] was tested, and the phosphorylation enrichment was 0.403. For VIKDKYPKARY [APTX_Y209], the phosphorylation enrichment was 0.38. FKGKKYKPLDL [RPL35_Y78_YF] was tested, and the phosphorylation enrichment was 0.337. For CTTIHYNYMWN [TP53_Y234_C238W], the phosphorylation enrichment was 1.82. For VTAALYGCLFE [BTD_Y536_R538C_YF], the phosphorylation enrichment was 1.54. Work on KLIMECLPFGS [JAK2_Y931_Y931C_YF] yielded a phosphorylation enrichment of 0.521. Sequence IMNLLYHVVGW [GBA_Y412_T408M] has a phosphorylation enrichment of 7.65. GRIHSYRGHLW [VHL_Y112_R107G] showed a phosphorylation enrichment of 0.357. In the case of PLFRKYWPNHI [GREB1L_Y1560_YF], the phosphorylation enrichment was 0.633. QMVGMYASFFM [AVPR2_Y124_S127F_YF] showed a phosphorylation enrichment of 5.38. ANAFIYVVQLP [L1CAM_Y420_YF] gave a phosphorylation enrichment of 0.909. For YGSGNYNVFGN [HNRNPA2B1_Y300_D302V], the phosphorylation enrichment was 0.639. FGPPQYNIQFS [ERBB2IP_Y977_YF] was tested, and the phosphorylation enrichment was 0.311. SPPPAYTPMSG [ERBB4_Y1056] was tested, and the phosphorylation enrichment was 0.529. Work on FDAHIYEGCVI [PRKCD_Y64_R67C] yielded a phosphorylation enrichment of 0.635. With SGIYQYNIAKF [FOXL2_Y83_I84N] the phosphorylation enrichment was 9.83. Work on TGQERYRAITS [RAB11B_Y73_A68T] yielded a phosphorylation enrichment of 0.337. TRSYDYTEGGD [FGF7_Y58_M59T] was tested, and the phosphorylation enrichment was 0.463. For LVMFIYVIFGM [SCN1A_Y1684_A1685V], the phosphorylation enrichment was 0.365.

These sequences were tested on c-Abl (mouse) in the same assay as above.
Sequence KVNKIYFPDFI [LIG3_Y767_YF] has a phosphorylation enrichment of 0.566. With LLILEYAKYGS [RET_Y806_V804L] the phosphorylation enrichment was 1.02. With AAVDTVCRHNY [HLA-DRB1_Y107_Y107V] the phosphorylation enrichment was 0.795. For SSYSGYIMMPN [LEF1_Y114], the phosphorylation enrichment was 0.486. LYNQDYPIHCV [GATM_Y227_S231C] was tested, and the phosphorylation enrichment was 0.625. Work on SYCYRYRCAAW [SUMF1_Y344_R349W] yielded a phosphorylation enrichment of 0.594. In the case of LRRREYQRQDF [PRKRIP1_Y90_YF], the phosphorylation enrichment was 0.777. Sequence PSQRHYVYYYS [PTEN_Y174_R173H] has a phosphorylation enrichment of 1.28. IETGKYEILTE showed a phosphorylation enrichment of 0.807. Work on RFLRGYRQDAY [HLA-A_Y137] yielded a phosphorylation enrichment of 0.922. VNFDYYTVNLG [GFPT1_Y367_D366Y] gave a phosphorylation enrichment of 1.36. Sequence LTMAPYSSVSV [FAM81A_Y24_L29V] has a phosphorylation enrichment of 0.811. LTYHMYADPNF [SOS1_Y618] showed a phosphorylation enrichment of 7.02. SFSGEYGGGGG [ZG16_Y30_YF] was tested, and the phosphorylation enrichment was 0.505. For SDVCMYRKNTY [SYNE2_Y570_I574T], the phosphorylation enrichment was 0.684. With VIKDKYPKARY [APTX_Y209] the phosphorylation enrichment was 0.692. With FKGKKYKPLDL [RPL35_Y78_YF] the phosphorylation enrichment was 0.544. Work on CTTIHYNYMWN [TP53_Y234_C238W] yielded a phosphorylation enrichment of 0.824. Work on VTAALYGCLFE [BTD_Y536_R538C_YF] yielded a phosphorylation enrichment of 1.02. KLIMECLPFGS [JAK2_Y931_Y931C_YF] was tested, and the phosphorylation enrichment was 0.96. IMNLLYHVVGW [GBA_Y412_T408M] showed a phosphorylation enrichment of 2.74. Sequence GRIHSYRGHLW [VHL_Y112_R107G] has a phosphorylation enrichment of 0.51. PLFRKYWPNHI [GREB1L_Y1560_YF] gave a phosphorylation enrichment of 0.557. With QMVGMYASFFM [AVPR2_Y124_S127F_YF] the phosphorylation enrichment was 4.72. Work on ANAFIYVVQLP [L1CAM_Y420_YF] yielded a phosphorylation enrichment of 0.724. YGSGNYNVFGN [HNRNPA2B1_Y300_D302V] gave a phosphorylation enrichment of 0.49. In the case of FGPPQYNIQFS [ERBB2IP_Y977_YF], the phosphorylation enrichment was 0.641. Sequence SPPPAYTPMSG [ERBB4_Y1056] has a phosphorylation enrichment of 0.459. Sequence FDAHIYEGCVI [PRKCD_Y64_R67C] has a phosphorylation enrichment of 0.938. SGIYQYNIAKF [FOXL2_Y83_I84N] was tested, and the phosphorylation enrichment was 4.58. TGQERYRAITS [RAB11B_Y73_A68T] was tested, and the phosphorylation enrichment was 0.368. In the case of TRSYDYTEGGD [FGF7_Y58_M59T], the phosphorylation enrichment was 0.642. LVMFIYVIFGM [SCN1A_Y1684_A1685V] showed a phosphorylation enrichment of 0.468.

— the supplement of paper PMC10065799, “High-throughput profiling of sequence recognition by tyrosine kinases and SH2 domains using bacterial peptide display” (eLife, 2023)
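Also: 11-residue human phosphosite peptides and single-mutation variants displayed on the E. coli surface, counted by deep sequencing, each peptide's frequency after selection divided by its frequency in the unselected input library; frequency after pTyr selection over input frequency; kinase dosed for 20-30% of maximal phosphorylation in three min.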
